Measured values from PMC3002279, “Polyphosphate Kinase from M. tuberculosis: An Interconnect between the Genetic and Biochemical Role” (PLoS ONE, 2010).

Target: the molecule itself
Experiment: SEC; […] (50 mM Tris pH 7.5, 150 mM NaCl, 4 mM MgCl2, 10% glycerol) […]

B1: Polyphosphate Kinase (PPK) from M. tuberculosis, recombinant, untagged (enzyme)
chain: MMSNDRKVTEIENSPVTEVRPEEHAWYPDDSALAAPPAATPAAISDQLPSDRYLNRELSWLDFNARVLALAADKSMPLLERAKFLAIFASNLDEFYMVRVAGLKRRDEMGLSVRSADGLTPREQLGRIGEQTQQLASRHARVFLDSVLPALGEEGIYIVTWADLDQAERDRLSTYFNEQVFPVLTPLAVDPAHPFPFVSGLSLNLAVTVRQPEDGTQHFARVKVPDNVDRFVELAAREASEEAAGTEGRTALRFLPMEELIAAFLPVLFPGMEIVEHHAFRITRNADFEVEEDRDEDLLQALERELARRRFGSPVRLEIADDMTESMLELLLRELDVHPGDVIEVPGLLDLSSLWQIYAVDRPTLKDRTFVPATHPAFAERETPKSIFATLREGDVLVHHPYDSFSTSVQRFIEQAAADPNVLAIKQTLYRTSGDSPIVRALIDAAEAGKQVVALVEIKARFDEQANIAWARALEQAGVHVAYGLVGLKTHCKTALVVRREGPTIRRYCHVGTGNYNSKTARLYEDVGLLTAAPDIGADLTDLFNSLTGYSRKLSYRNLLVAPHGIRAGIIDRVEREVAAHRAEGAHNGKGRIRLKMNALVDEQVIDALYRASRAGVRIEVVVRGICALRPGAQGISENIIVRSILGRFLEHSRILHFRAIDEFWIGSADMMHRNLDRRVEVMAQVKNPRLTAQLDELFESALDPCTRCWELGPDGQWTASPQEGHSVRDHQESLMERHRSP
notes: also called M. tu PPK; M.tu PPK
- stoichiometry N: 4
